In the supplement of paper PMC9732359:
± gives the uncertainty stated by the source.

Test: protein stability index of a GFP-peptide fusion (yeast GPS) (PSI 1-4); higher = more stable; sorted into four equal gates, so the index is relative within each strain
Conditions: pdr5∆
Procedure, shortened: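 Plasmids in a pooled yeast library fused tiled 17-residue yeast protein peptides downstream of GFP and also expressed Cherry. Mid-log cultures grown without leucine were sorted into four equal gates by GFP/Cherry fluorescence ratio. Each gate's plasmids were PCR-amplified and Illumina-sequenced, and reads were matched to strains by barcodes. The protein stability index is derived by multiplying each gate's read frequency by its gate number and summing the results.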

Row | Sequence | protein stability index
1 | EDEAALAKLVSTIDANF [RPL8A] | 3.02 ± 0.068
2 | EDEENSDVLLFQLPTTC [RGR1] | 2.27 ± 0.035
3 | EDEGEERESSGAKDAEK [RPC17] | 3.38 ± 0.28

Same assay, conditions: san1∆

Row | Sequence | protein stability index
4 | DKKLNLNLPLQFSLPNG [SNF12] | 2.62 ± 0.074
5 | DKKNSSDPNNQSLNEMV [YJL039C/NUP192] | 3.16 ± 0.087
6 | DKKVLVKVQPEGKYIVD [RPT6] | 3.23 ± 0.036
7 | DKLDDDGLIAPGVRVSG [RPB2] | 2.48 ± 0.27
8 | DKLELYVLRNVLRIPEE [MTW1] | 2.94 ± 0.076
9 | DKLPQFVDENTFQRVCQ [RPN1] | 3.15 ± 0.062
10 | DKLWTLIPEDKRDQYLK [RPL28] | 3.13 ± 0.07
11 | DKLYIHFVQEEPLAFYL [RGR1] | 2.4 ± 0.045
12 | DKSIDTSSLQLYKFQNF [YML103C/NUP188] | 2.7 ± 0.055
13 | DLAFGGEANKHHWEDLQ [RPN5] | 3.07 ± 0.11
14 | DLALPPPPPPPPGYEIE [PRP8] | 2.54 ± 0.14
15 | DLDLNEQVRKMYQEWED [NSL1] | 3.26 ± 0.071
16 | DLDTVLKKDIESLRGIL [SRP72] | 1.37 ± 0.25
17 | DLEKTERIVVSYEYYNI [SMC2] | 2.71 ± 0.074
18 | DLESMGLTQLYKKSTEN [MED7] | 2.81 ± 0.067
19 | DLIAEQVVTDYNILGNL [SSN2] | 2.28 ± 0.11
20 | DLQKLLKGIQEFGADWY [SWI3] | 3.09 ± 0.043
21 | DLQNLNLNTDKLKNNAS [YJL039C/NUP192] | 2.94 ± 0.086
22 | DLRLGSQSLGVSNKFEK [PUP3] | 2.94 ± 0.13
23 | DLSLNITLHPSFFGPRM [RPB7] | 1.7 ± 0.14
24 | DLTLDDISLKADLERFF [YJL039C/NUP192] | 3.41 ± 0.036
25 | DLTNNPQDDDSQSKMMS [MTR3] | 3.09 ± 0.074
26 | DMANEIILSIDEHHESF [RRP6] | 2.95 ± 0.062
27 | DMDAQGRSDSNTEEKAE [YGL100W/SEH1] | 1.5 ± 0.14
28 | DMGMQQELCYPDENHDN [BRN1] | 2.99 ± 0.059
29 | DMNSNLQVLKRERDGIK [SMC1] | 3.03 ± 0.047

Row | Sequence | protein stability index
30 | DNCCDFKVRTNLNDKFG [MED1] | 2.79 ± 0.15
31 | DNNITEMLEENFPEASK [YCG1] | 2.59 ± 0.09
32 | DNNNTTNNDSNNKNNSI [MED2] | 2.96 ± 0.038
33 | DNRTKSTTIKNIDILNR [SMC4] | 1.77 ± 0.15
34 | DNVSGLTRNAPLDSKDE [SNF2] | 3 ± 0.04
35 | DPDNTSFSDENSDDFFM [ESC2] | 2.54 ± 0.09
36 | DPDTKKVKESPANDQAS [YIL149C/MLP2] | 3.06 ± 0.049
37 | DPHSASLINSHLKILAS [RPC82] | 1.38 ± 0.19
38 | DPKLEKCLNYRNVNWIE [ITC1] | 2.96 ± 0.056
39 | DPLYDITKVPALEFLNT [REC8] | 2.61 ± 0.11
40 | DPPFRIEEQGWGGFPLD [TAF14] | 3.44 ± 0.048
41 | DPRIAPLRGALATYGLT [FAS2] | 2.38 ± 0.13
42 | DPSISNNIRQAICRYAN [RRP4] | 1.59 ± 0.11
43 | DPVEGNLEFDSTNHPDY [SRP14] | 3.09 ± 0.049
44 | DPYELKGEVVLVNIRTQ [ITC1] | 2.45 ± 0.11
45 | DQCVGQVGLNFELSFTG [YMR129W/POM152] | 3.06 ± 0.046
46 | DQDELVQPPLDKFPYKK [SWP82] | 3.13 ± 0.059
47 | DQKFGVPVRSFKGHSHI [ASC1] | 2.99 ± 0.07
48 | DQNNATMGEETAKKDMS [SNF12] | 3.21 ± 0.12
49 | DRELSVRNACKRLIAHD [YCG1] | 2.49 ± 0.26
50 | DRIYMLFHFEEDEGEEL [PRP8] | 1.5 ± 0.17
51 | DRSLADDYDYVMYGTAY [RPB8] | 3.02 ± 0.063
52 | DRVEDICERIFEQGQAL [RRI2] | 3.18 ± 0.22
53 | DRVFNVPTIGVVNSNFA [YJR042W/NUP85] | 2.48 ± 0.086
54 | DSELNRALFETKLNLHC [RRI1] | 3 ± 0.038
55 | DSESESGDKEATAPLIQ [RPN8] | 3.28 ± 0.093

Row | Sequence | protein stability index
56 | DSIPLRITNSFYSTNSQ [RPN9] | 2.58 ± 0.18
57 | DSKMIQDLSRNTLGKGQ [SNU114] | 3.34 ± 0.12
58 | DSLENNEGVPSPMLSIS [FAS1] | 2.4 ± 0.1
59 | DSLIFKDSSLNYSSESY [YJL039C/NUP192] | 2.71 ± 0.21
60 | DSLNEWIKFDQELYNEL [RPN7] | 3.17 ± 0.074
61 | DSLNQLEIRNKICSSEM [RGR1] | 2.65 ± 0.14
62 | DSMLFVFGFRANKMRQD [SMC4] | 2.08 ± 0.12
63 | DSVLLNRGNKKRHRSSY [YML031W/NDC1] | 3.04 ± 0.06
64 | DSYIALYEKDIVPSMTH [RET1] | 2.46 ± 0.075
65 | DTKLKAHELQSEDVSRD [YIL149C/MLP2] | 3.03 ± 0.048
66 | DTLCGIRKLTLRDTFIE [RPO21] | 1.26 ± 0.1
67 | DTLKENATEVQKESDAK [ITC1] | 2.85 ± 0.086
68 | DTSRPDLEWQELTSFSS [DSN1] | 3.08 ± 0.055
69 | DTSTQAYEEEEENEDND [NUT1] | 3.54 ± 0.18
70 | DTVAELQAQLDYLNAEL [FAS2] | 3.12 ± 0.049
71 | DVAAKCKEVGITAVHVK [RPS14A] | 2.72 ± 0.062
72 | DVAFLKTAYSIYLSQNE [RPN1] | 2.16 ± 0.062
73 | DVEIGRMPIMLRSNKCI [RET1] | 1.14 ± 0.27
74 | DVHNGYILRYLHANGAS [COB] | 1.93 ± 0.11
75 | DVKCWSKFIEKFQDIVS [MED1] | 2.09 ± 0.14
76 | DVKSSDSLKLNSKPVEL [YJL041W/NSP1] | 3.1 ± 0.14
77 | DVNEKIRFRIEREVFVD [RPC25] | 1.56 ± 0.13
78 | DVNSASKSESDSQIVTP [RRP4] | 3.06 ± 0.099
79 | DVSIEELLREWLETYSE [IRR1] | 3.56 ± 0.067
80 | DVTALLEQGFKVVSAKE [YCS4] | 2.9 ± 0.098
81 | DVVERLHKNFESENFKI [RGR1] | 3.23 ± 0.18

Row | Sequence | protein stability index
82 | DVVMKATEPQMVLFNIY [PRP8] | 1.58 ± 0.078
83 | DVYTLPSYVHFKVQIIE [YML103C/NUP188] | 1.43 ± 0.069
84 | DWIRFVSIRQNQYKLVF [RPL22B] | 1.26 ± 0.1
85 | DYFFYFLVLYDVKTAEE [NUT1] | 1.62 ± 0.094
86 | DYISGISVGLYDTTPLL [SKI6] | 1.84 ± 0.084
87 | DYPDDSGWTPFHIACSV [NAS6] | 2.48 ± 0.12
88 | DYRVLVDKSRKVAHTSY [PRE8] | 2.3 ± 0.13
89 | EAAAKEKDELDNIEVSK [QCR7] | 3.29 ± 0.084
90 | EAEFSLRELSCCINAAF [RRP46] | 2.76 ± 0.047
91 | EAFGNIKIDAKPALFER [MCD1] | 1.84 ± 0.21
92 | EAGEVKDDGAFVKFLSK [RPL10] | 3.35 ± 0.07
93 | EAGVTDVKVSISHDDLQ [FAS2] | 2.74 ± 0.061
94 | EALFQSRPDILSKIKFP [YCG1] | 2.82 ± 0.067
95 | EALSEKPTREPTPSVKT [RPC53] | 3.2 ± 0.063
96 | EANGATSFDRTKKTITP [RPL3] | 2.74 ± 0.12
97 | EAPFLTSGTSSEQFNVW [GAL11] | 3.02 ± 0.062
98 | EATQDDDFDMLFGENDT [NUT1] | 3.06 ± 0.065
99 | ECATCHGNLASCHGHFG [RPO31] | 2.92 ± 0.067
100 | ECKGCDNKIDIYQIHIP [RPB2] | 3.02 ± 0.035
101 | ECPGHFGHIDLAKPVFH [RPO21] | 2.74 ± 0.048
102 | EDDDNEQHEEKAAEGEE [QCR6] | 2.95 ± 0.24
103 | EDDLVGVVQMVTDNKTP [TAF14] | 2.84 ± 0.091
104 | EDEAALAKLVSTIDANF [RPL8A] | 2.66 ± 0.062
105 | EDEENSDVLLFQLPTTC [RGR1] | 2.63 ± 0.041
